According to patent US20040049024A1, “Compositions and methods related to the minn1 tumor suppressor gene and protein” (priority 2003, published 2004):
Peptide text beside a SMILES is read from it. * marks the point of attachment. Cbz = O=C(OCc1ccccc1)*; CH2F = FC*

Columns and labels:
293-T cells = assay: Cell death after Minn1 or Fas transfection, with or without caspase inhibitor; assay type: cell-based, human; conditions: 30 μM, added immediately after transfection; DMSO carrier
Description: Fas is a well-characterized inducer of apoptosis (Nagata, Annu. Rev. Genet., 33:29-55 [1999]).
Apoptosis requires the activation of caspase proteases (Stennicke and Salvesen, Biochim. Biophys. Acta 1477:299-306 [2000]). In order to confirm that the cell death observed in the Minn1 and […] transfected cells was apoptotic cell death, the transfection experiments were repeated in the presence of the caspase inhibitor, z-VAD-fink (Calbiochem). The drug was added to the cells to a final concentration of 30 μM immediately after transfection and was maintained during subsequent medium changes. DMSO was used as the drug carrier, and was also included in transfections that contained no drug in order to normalize transfection conditions.

[1] = molecular target: T1, HA-H-Ras(G12V) fusion protein (UniProt P01112 1-186); assay: co-transfection in 293-T cells, anti-HA immunoprecipitation, anti-FLAG Western blot
T1 construct: Expressed in 293-T cells; precipitated with anti-HA beads; also called pCGNHA-H-Ras(G12V)
Description: (§1) After 48 hours, the cells were lysed, immunoprecipitated using anti-HA antibody-conjugated sepharose beads (BAbCO), washed and analyzed by Western immunoblotting using an anti-FLAG monoclonal antibody (M2 antibody, SIGMA) and an alkaline phosphatase conjugated secondary antibody with an ECL detection kit (Amersham).
(§2) After 48 hours, the cells were lysed in EDTA-free RIPA buffer (described in Clark et al., J. Biol. Chem., 272:20990-20993 [1997]), immunoprecipitated with anti-HA antibody-conjugated sepharose beads (BAbCO), washed and subjected to Western immunoblotting using an anti-FLAG monoclonal primary antibody (M2 antibody, Sigma) and an alkaline phosphatase conjugated secondary antibody with an ECL chemiluminescence kit (Amersham).

[2] = molecular target: T2, HA-H-Ras(WT) fusion protein (UniProt P01112 1-186); assay: as above
T2 construct: Expressed in 293-T cells; precipitated with anti-HA beads; also called wild-type HA-H-Ras
Description: as §1, §2

H-Ras [3] = assay: In vivo Ras/Minn1 binding assay (co-transfection/co-precipitation in 293-T cells); assay type: cell-based, human; conditions: HA-H-Ras(WT) versus HA-H-Ras(G12V), 48 hours after co-transfection
Source text: To confirm and complement the results observed in the in vitro binding assay, an in vivo binding assay was undertaken using recombinant FLAG-tagged Minn1 protein and hemagglutinin (HA)-tagged Ras proteins. These experiments used a standard co-transfection/co-precipitation protocol common in the art, using 293-T cells, a transformed human embryonal kidney cell line.
Expression vectors encoding two different forms of HA-tagged Ras protein were used in this assay, namely, a wild-type HA-H-Ras fusion protein and an HA-H-Ras containing a gain-of-function (G12V) mutation. This mutation is known to be oncogenic, and results in elevated Ras signalling activity (Clark and Der, in GTPases in Biology [eds. Dickey and Birmbauer], Springer-Verlag London Ltd., pp. 259-287 [1993]). […] Thus, this mutant form of Ras is considered to be locked in an active conformation.
as §1, with “The in vivo binding assay was conducted by co-transfecting mammalian expression vectors encoding HA-H-Ras(WT) or HA-H-Ras(G12V) with an expression vector encoding FLAG-Minn1 into 293-T cells. After” for “After”, “(Amersham). […]” for “(Amersham).”

H-Ras [4] = molecular target: T3, H-Ras (Homo sapiens, UniProt P01112); assay: In vitro Ras/Minn1 binding and co-precipitation assay
T3 construct: made in house; XL1-Blue Escherichia coli for the MBP fusions
Source text: The ability of Ras and Minn1 to interact in vitro was examined. These experiments used in vitro produced and purified maltose binding protein (MBP) fusion proteins containing the Minn1 Ras-Association (RA) domain or the Raf Ras-Binding-Domain (RBD), and purified Ras protein in a standard protein binding and co-precipitation assay.
Ras protein was produced by inducing an H-Ras bacterial expression construct in bacteria followed by differential denaturation and dialysis, as known in the art (See e.g., Campbell-Burk and Carpenter, Methods Enzymol., 255:3-13 [1995]). […] Purity and concentrations of the recombinant proteins were assessed by denaturing polyacrylamide gel electrophoresis (SDS-PAGE) followed by Coomassie Blue staining and comparison to known standards.
After this time, the binding reactions were centrifuged and washed. Following the washing steps, the binding reactions were loaded and resolved using PAGE, blotted to a polyvinylidene difluoride (PVDF) membrane, and analyzed by Western immunoblotting using an anti-H-Ras monoclonal primary antibody (Quality Biotech, #146). Detection was accomplished using an alkaline phosphatase conjugated secondary antibody and ECL chemiluminescence reagent (Amersham). […]
The proteins resolved in the PAGE were analyzed by Western immunoblotting using an anti-H-Ras monoclonal antibody (Viro Med). […]

COC(=O)C[C@H](NC(=O)[C@H](C)NC(=O)[C@@H](NC(=O)OCc1ccccc1)C(C)C)C(=O)CF [z-VAD-fmk] (Cbz-Val-Ala-Asp(OMe)-CH2F)
Effect on Fas-induced cell death (293-T cells): severely reduced | Effect on Minn1-induced cell death (293-T cells): severely reduced

B1: FLAG-tagged Minn1 protein (other, not shown: small tags and cut ends)
chain: MGEAEAPSFEMTWSSTTSSGYCSQEDSDSELEQYFTARTSLARRPRRDQDEPVEWETPDLFQAEIEQKIKEYNAQINSNLFMSLNKDGSYTGFIKVQLKLVRPVSVPSSKKPPSLQDARRGPGRGTSVRRRTSFYLPKDAVKHLHVLSRTRAREVIEALLRKFLVVDDPRKFALFERAERHGQVYLRKLLDDEQPLRLRLLAGPSDKALSFVLKENDSGEVNWDAFSMPELHNFLRILQREEEEHLRQILQKYSYCRQKIQEALHACPLG
notes: also called FLAG-Minn1
binding result [1]: binds | binding result [2]: binds

B2: FLAG-tagged Minn1: Minn1 protein with amino terminal FLAG epitope tag, expressed from pCDNAFLAG-Minn1 in 293-T cells (protein)
chain: B1 chain
modifications: left off: small tags and cut ends
Association with HA-tagged Ras proteins (anti-HA immunoprecipitation, anti-FLAG Western) (H-Ras [3]): preferentially associated with the activated HA-Ras(G12V) protein

B3: MBP-Minn1: maltose binding protein fusion protein containing the Minn1 Ras-Association (RA) domain, amino acid positions 59-270 (protein)
chain: DLFQAEIEQKIKEYNAQINSNLFMSLNKDGSYTGFIKVQLKLVRPVSVPSSKKPPSLQDARRGPGRGTSVRRRTSFYLPKDAVKHLHVLSRTRAREVIEALLRKFLVVDDPRKFALFERAERHGQVYLRKLLDDEQPLRLRLLAGPSDKALSFVLKENDSGEVNWDAFSMPELHNFLRILQREEEEHLRQILQKYSYCRQKIQEALHACPLG
modifications: left off: large carriers
GTP dependence of the interaction with Ras (H-Ras [4]; GTP-loaded versus GDP-loaded H-Ras): GTP-dependent | Co-precipitation of Ras protein (physical interaction with Ras) (H-Ras [4]; purified H-Ras preloaded with GTP or GDP, 4° C. for 2 hours, Western immunoblot with anti-H-Ras antibody): co-precipitated
